Substrate: CC(C)(O)C(=O)SCCNC(=O)CCNC(=O)[C@H](O)C(C)(C)COP(=O)(O)OP(=O)(O)OC[C@H]1O[C@@H](n2cnc3c(N)ncnc32)[C@H](O)[C@@H]1OP(=O)(O)O
Assay: purified protein
Conditions: lyase direction, 37 °C, pH 7.2, 100 mM potassium phosphate, 10% glycerol, 0.2 mM ThDP, 0.2 mM ADP, 5 mM MgCl2, complex structure with dzThDP

Protein	Km [µM]	Vmax [µmol/min/mg]	kcat [s⁻¹]	kcat/Km [M⁻¹ s⁻¹]
AcHACL (Actinomycetospora chiangmaiensis DSM 45062) (protein) MADRQDAERSGAGPARQSVPVASLVAEFLQEHGVDRVFGLQGGHIQPIWDQLARRGVRIVDVRDEGSAVHMAHAHTELTGQTAVAMVTAGPGVTNTVTAVANASVSRIPLLVIGGCPPIPQSNMGPLQDIPHTAILEPITRLARTLRSADQVLREFDEAWARASGDRGEPGPVYLEIPTDVLRRDVPPALQMREHLRAKPKRRPQPHPDDVAAVADLIRAAEKPAIISGRGARTTDGTDLVRLLDASGAAYLDTQESRGLVPDSHPAAVGSARSAVMRDTDLLITVGRQLDYQLGMGSPAVFPHAKVVRIADTASELIDNRRGEVEILAEPGAALAAIADALKDHTPDTSWRDELKAKHRKRAEDYRQALHSTENGADGHIHPNRIFGALDALDGDVLDLGETIMIADGGDLLSFGRLGITKARRYLDAGAFGCLGVATPFAIGAALAYPDRPVVAVTGDGAFGITATEIDTAVRHDAKIVVIVSNNRAWNIERYDQAENYGLVVGTDLADSDYAGVARAFGAHGERVTDPAELEGAIRRALANAPALVDVVTTQDAASPDSGKGLGFVPDYQALTPWNDAEVARRQEGI	120 ± 12	1.2	1.3	11000
AcHACL (Actinomycetospora chiangmaiensis DSM 45062; E493Q) (protein) MADRQDAERSGAGPARQSVPVASLVAEFLQEHGVDRVFGLQGGHIQPIWDQLARRGVRIVDVRDEGSAVHMAHAHTELTGQTAVAMVTAGPGVTNTVTAVANASVSRIPLLVIGGCPPIPQSNMGPLQDIPHTAILEPITRLARTLRSADQVLREFDEAWARASGDRGEPGPVYLEIPTDVLRRDVPPALQMREHLRAKPKRRPQPHPDDVAAVADLIRAAEKPAIISGRGARTTDGTDLVRLLDASGAAYLDTQESRGLVPDSHPAAVGSARSAVMRDTDLLITVGRQLDYQLGMGSPAVFPHAKVVRIADTASELIDNRRGEVEILAEPGAALAAIADALKDHTPDTSWRDELKAKHRKRAEDYRQALHSTENGADGHIHPNRIFGALDALDGDVLDLGETIMIADGGDLLSFGRLGITKARRYLDAGAFGCLGVATPFAIGAALAYPDRPVVAVTGDGAFGITATEIDTAVRHDAKIVVIVSNNRAWNIQRYDQAENYGLVVGTDLADSDYAGVARAFGAHGERVTDPAELEGAIRRALANAPALVDVVTTQDAASPDSGKGLGFVPDYQALTPWNDAEVARRQEGI	79 ± 7	0.025	0.03	340
AcHACL (Actinomycetospora chiangmaiensis DSM 45062; E493A) (protein) MADRQDAERSGAGPARQSVPVASLVAEFLQEHGVDRVFGLQGGHIQPIWDQLARRGVRIVDVRDEGSAVHMAHAHTELTGQTAVAMVTAGPGVTNTVTAVANASVSRIPLLVIGGCPPIPQSNMGPLQDIPHTAILEPITRLARTLRSADQVLREFDEAWARASGDRGEPGPVYLEIPTDVLRRDVPPALQMREHLRAKPKRRPQPHPDDVAAVADLIRAAEKPAIISGRGARTTDGTDLVRLLDASGAAYLDTQESRGLVPDSHPAAVGSARSAVMRDTDLLITVGRQLDYQLGMGSPAVFPHAKVVRIADTASELIDNRRGEVEILAEPGAALAAIADALKDHTPDTSWRDELKAKHRKRAEDYRQALHSTENGADGHIHPNRIFGALDALDGDVLDLGETIMIADGGDLLSFGRLGITKARRYLDAGAFGCLGVATPFAIGAALAYPDRPVVAVTGDGAFGITATEIDTAVRHDAKIVVIVSNNRAWNIARYDQAENYGLVVGTDLADSDYAGVARAFGAHGERVTDPAELEGAIRRALANAPALVDVVTTQDAASPDSGKGLGFVPDYQALTPWNDAEVARRQEGI	21 ± 4	0.098	0.11	5100

From paper PMC8760513, “Mechanistic details of the actinobacterial lyase-catalyzed degradation reaction of 2-hydroxyisobutyryl-CoA” (The Journal of Biological Chemistry, 2021)
